Results taken from patent publication US8440804B2, “Polypeptides having modulatory effects on cells” (Ecole Normale Superieure de Lyon, priority 2006, dated 2013).
Numbering of substitutions follows the chain as printed.

T1: NS5A-TP2 (Homo sapiens, UniProt Q7Z4H3)
T1 construct: expressed in transfected cells; host or cells: yeast
T1 sequence (Q7Z4H3 1-204): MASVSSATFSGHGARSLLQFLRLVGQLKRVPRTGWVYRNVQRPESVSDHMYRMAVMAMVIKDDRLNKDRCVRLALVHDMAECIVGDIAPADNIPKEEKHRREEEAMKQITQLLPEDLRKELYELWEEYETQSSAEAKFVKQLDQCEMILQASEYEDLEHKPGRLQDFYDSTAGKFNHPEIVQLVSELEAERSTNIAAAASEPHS

B1: C2: R5G42 mutant having a one amino acid change (SEQ ID 23) (protein)
chain: MVKQIESKTAFQEALDAAGDKLVVVDFSATWCGPSAVTFAVCALGPCKMIKLFFHSLSEKYSNVIFLEVDVDDCQDVASECEVKCMPTFQFFKKGQKVGEFSGANKEKLEATINELV
modifications: Aptamer R5G42 mutant C2
B2: C7: R5G42 mutant having a one amino acid change (SEQ ID 27) (protein)
chain: B1 chain with L22P, L52P
modifications: Aptamer R5G42 mutant C7
B3: C8: R5G42 mutant having a one amino acid change (SEQ ID 28) (protein)
chain: B1 chain with F39I, L52P
modifications: Aptamer R5G42 mutant C8
B4: receptor activator of nuclear factor (NF)-κB ligand (protein, UniProt O14788 140-317, looked up)
Tumor necrosis factor ligand …: IRAEKAMVDGSWLDLAKRSKLEAQPFAHLTINATDIPSGSHKVSLSSWYHDRGWAKISNMTFSNGKLIVNQDGFYYLYANICFRHHETSGDLATEYLQLMVYVTKTSIKIPSSHTLMKGGSTKYWSGNSEFHFYSINVGGFFKLRSGEEISIEVSNPSLLDPDQDATYFGAFKVRDID
notes: TNF family cytokine, normal osteoclast differentiation factor

Legend:
CNA = experiment: Yeast two-hybrid assay; type: binding, human; details: mating assay, LexA-aptamer fusions
Description: (A) Yeast two-hybrid mating assay. TB50α yeast were co-transformed with pSH18-34T (bearing a lacZ reporter gene) and plasmids directing the expression of LexA alone or in fusion with peptide aptamers R5G42, R7G44 or R5G52. MB210a yeast were transformed with the selected cDNA library plasmids directing the expression of CNAβ, CNAγ, and NS5ATP2 truncated proteins. To obtain negative controls, MB210a yeast were also transformed with the empty prey plasmid (pJG4-5) and with pJG4-5 directing the expression of Ras and FKBP12 prey proteins. To obtain a positive control, MB210a yeast were transformed with pJG4-5 directing the expression of RG22 peptide aptamer prey fusion protein that interacts with LexA in the context of most LexA fusion proteins.
The inventors set out to map the R5G42 binding site on CNA. The CNA interacting clones selected in the yeast two-hybrid experiments corresponded to the carboxy-terminal regions of the beta and gamma isoforms, encompassing the calmodulin-binding domain and the auto-inhibitory domain (see FIG. 3B). […] The LexA-R5G52 bait protein may thus not be properly expressed and/or folded in this yeast two-hybrid setting.
(§1) The inventors explored the ability of R5G42 mutants having a one amino acid change as compared to R5G42, to bind to CNA beta and gamma C-Terminal fragments (FIG. 3b) and to NS5A-TP2. To this end, they proceeded to yeast-two hybrid assays as in example 3. CNA beta and gamma C-Terminal fragments (FIG. 3b) and NS5A-TP2 were cloned in three different plasmids (pSH18-34, pJK103 and pRB18-40), which differed from each other in the level of sensitivity of their promoter to the bait/prey complex formation, pSH18-34 having the highest sensitivity and pRB18-40 having the lowest.
The 5′ end of RH6 (upper case) matches part of the HA epitope tag and the 5′ ends of RH4, RH3 and RH7 (upper case) match the 5′ extremity of the ADH terminator. The PCR reactions was performed using pCMV-SPORT6-CnAβ as a template. CnAβCter Δ1, Δ2, CaM were constructed by combining oligonucleotides RH6/RH4, RH6/RH3, RH6/RH7, respectively. […]

Hela cells = experiment: Colony formation assay (cell proliferation assay, crystal violet); type: cell-based; details: continuous expression 2 weeks, compared to AptaLib and human thioredoxin
Description: (§2) (B) Colony formation assays. Hela or MCF-7 cells were transfected with plasmids directing the stable expression of the Cdk inhibitor p21, a library of peptide aptamers from pBK1 (AptaLib), Human thioredoxin (HTRX), and peptide aptamers R7G44, R5G42, R5G52. The cells were cultured for two weeks and the colonies were stained with crystal violet.
(§3) The inventors wished to establish the antiproliferative activity of these peptide aptamers using alternative cellular models and a non-retroviral vector to express individually each aptamer. They cloned the aptamer coding genes into a vector bearing a hygromycin selection marker. They also subcloned the pBK1 library into this vector, to create “AptaLib”. They continuously expressed the aptamers, the empty thioredoxin scaffold or AptaLib in Hela and MCF-7 cells for 2 weeks and they stained the cells that grew. […] These aptamers may originate from the remaining background of slowly proliferating cells during the seventh screening iteration, independently of the expressed aptamers. […] This could be due to the fact that the CMTMR assay is more sensitive in detecting modest antiproliferative effects than the colony formation assay or that some peptide aptamers somehow enhance the CMTMR labeling of their host cells.
(§4) To stably express peptide aptamers in mammalian cells, the episomal eukaryotic expression vector pCEP4 that bears a CMV promoter and a hygromycin selection marker (InVitrogen) was used. Aptamer coding sequences were PCR amplified using the oligonucleotides
(§5) that contained a stop codon. The PCR products were digested with NheI and NotI and ligated into NheI/NotI-cut pCEP4 to create pEA-aptamer plasmids. 3×10^5 cells/well were plated in 6-well plates and transfected 24 h after using Jet PEI (Qbiogen), 3.7 μg pEA-aptamer plasmids and 0.3 μg pEGFP-C1 (Clontech) to monitor transfection. Hygromycin (InVitrogen) was added at 200 μg/ml two days later and the cells were cultured for 2 weeks, renewing the medium twice a week. The cells were then rinsed in PBS and were fixed and stained by incubating 30 min in crystal violet (0.05% crystal violet, 20% ethanol, 0.37% formaldehyde). Excess crystal violet was removed by washing with water. In Vitro Phosphatase Assay

MCF-7 cells = experiment: as above; type: cell-based; details: MCF-7, continuous expression 2 weeks, compared to AptaLib and human thioredoxin
Description: as §2, §3, §4, §5

[1] = target: T2, CNA beta C-terminal fragment (Homo sapiens, UniProt P16298); experiment: Yeast two-hybrid assays of R5G42 mutants; type: binding; details: plasmids pSH18-34, pJK103, pRB18-40
T2 construct: expressed in transfected cells; host or cells: yeast (MB210a transformed with library plasmid, mated with bait strain)
Description: (§6) The capacity of R5G42 mutants having a one amino acid change as compared to R5G42 to bind CNA beta and gamma C-Terminal fragments (FIG. 3b) and NS5A-TP2 was tested in yeast two-hybrid assays. CNA beta and gamma C-Terminal fragments and NS5A-TP2 were cloned in three different vectors (pSH18-34, pJK103 and pRB18-40). These three plasmids differ from each other in the level of sensitivity of their promoter, pSH18-34 having the highest sensitivity and pRB18-40 having the lowest.
as §1

NS5A-TP2 = target: T1, NS5A-TP2; experiment: Further yeast two-hybrid binding assays (higher sensitivity)
Description: FIG. 14. Specificity of aptamers according to the invention for CNA and NS5A-TP2 Interaction matrix between peptide aptamers R5G42, C2, C7, C8, N9, R5G44 and R5G52 with CNA constructs CNA1-CNA8 (A) CNA9-11 (B) and NS5A-TP2 (C). An interaction phenotype between CNA3/CNA 11, which both contain the Calmodulin binding domain (CaM) and the auto-inhibitory domain (Al) but not the CNB binding domain (CNB) and the aptamers R5G42, C2, C7, C8 and N9 is observed in a two-hybrid assay. R5G44 and R5G52 aptamers recognize neither the CNA fragments, nor NS5A-TP2. Only aptamers R5G42 and N9 recognize NS5A-TP2.
The inventors proceeded to further yeast two-hybrid binding assays between peptide aptamers R5G42 (SEQ ID 22), C2 (SEQ ID 23), C7 (SEQ ID 27), C8 (SEQ ID 28), N9 (SEQ ID 33), R5G44 and R5G52 with CNA constructs CNA1-CNA8 (FIG. 14A), CNA9-CNA11 (FIG. 14B) and NS5A-TP2 (SEQ ID 15) (FIG. 14C). The sensitivity of this yeast two-hybrid assay was higher than in the experiment reported above.

[2] = tested on: Raw1 cells (osteoclasts precursors); experiment: Raw cell differentiation assay (osteoclast differentiation); type: cell-based
Description: Trx, CNA* and Peptide aptamers R5G42, C2, C7, C8 and N9 were transfected into RAW1 cells and left for four days in absence of the normal differentiation factor RANKL. CNA* is activated calcineurin A which elicits a robust differentiation response.
The inventors assessed the ability of some CNA-specific peptide aptamers to promote osteoclast differentiation via the activation of CNA. […] The differentiation state was then observed 4 days post-transfection.
Raw1 cells were transfected with the following plasmids: pCI-HA-Trx (negative control), pCI-HA CNA* (positive control for differentiation activation), pCI-HA R5G42, pCI-HA R5G42-C2, pCI-HA R5G42-C7, pCI-HA R5G42-C8 and pCI-HA R5G42-N9. The sequence of CNA* is the same as that of CNA8 (see FIG. 17, SEQ ID 42). The sequences of the R5G42 (SEQ ID 22), C2 (SEQ ID 23), C7 (SEQ ID 27), C8 (SEQ ID 28) and N9 (SEQ ID 33) aptamers is shown on FIG. 8.
One day before the transfection, Raw I cells were plated in 6-well dishes at 50 cell/mm^2. Transfection was performed with FuGene 6 Reagent (Roche) using 2 μg of each plasmid and following supplier recommendations.
8 h after transfection D-MEM was changed with α-MEM. In the control dishes α-MEM+50 ng/ml RANKL was added. After 2 days, medium was changed with a fresh medium. The differentiation state was then observed 4 days post-transfection.

[3] = tested on: CNA gamma C-terminal fragment; experiment: Yeast two-hybrid assays of R5G42 mutants; type: binding, human; details: plasmids pSH18-34, pJK103, pRB18-40
CNA gamma C-terminal fragment, sequence (P48454 386-512 limits assumed): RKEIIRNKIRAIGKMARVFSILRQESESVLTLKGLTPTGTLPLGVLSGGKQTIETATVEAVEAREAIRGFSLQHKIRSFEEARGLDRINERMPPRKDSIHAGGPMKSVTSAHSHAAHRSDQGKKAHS
Description: as §6, §1

[4] = 4 days post-transfection, absence of RANKL

yeast two-hybrid interaction [1] | Molecule | yeast two-hybrid interaction phenotype with CNA (CNA) | inhibition of cell proliferation (colony formation) (Hela cells) | inhibition of cell proliferation (colony formation) (MCF-7 cells) | recognition of NS5A-TP2 (NS5A-TP2) | osteoclast differentiation [2, 4] | yeast two-hybrid interaction [3] | osteoclast differentiation ([2]; control conditions, 50 ng/ml RANKL)
– | R7G44: peptide aptamer: variable region HQSTIGVAEF in human thioredoxin (SEQ ID 31); control without antiproliferative effect | did not show an interaction phenotype | did not exert any antiproliferative effect | did not exert any antiproliferative effect | – | – | – | –
– | R7G11: peptide aptamer: variable region LHLAGRGWEN in human thioredoxin (SEQ ID 30) (Aptamer variable sequence of R7G11) | – | did not inhibit cell proliferation | did not inhibit cell proliferation | – | – | – | –
shown to interact | B1 | – | – | – | only aptamers which recognized NS5A-TP2 were R5G42 and N9 | no osteoclasts fully differentiated were detectable | shown to interact | –
shown to interact | B2 | – | – | – | only aptamers which recognized NS5A-TP2 were R5G42 and N9 | Some cells with the osteoclast phenotype can be observed | shown to interact | –
shown to interact | B3 | – | – | – | only aptamers which recognized NS5A-TP2 were R5G42 and N9 | no osteoclasts fully differentiated were detectable | shown to interact | –
– | B4 | – | – | – | – | – | – | differentiated into osteoclasts
